# Experimental data published in PMC10998907 (Nature Communications, 2024).
# Biological target: NiV-RBP ectodomain homotetramer (Nipah virus, Malaysia (deposit 8K3C …, UniProt Q9IH62))
# Assay: cryo-EM structure
# Conditions: both partners purified
# Chain of NiV-RBP ectodomain homotetramer (Nipah virus, Malaysia (Q9IH62 whole entry, looked up, the tested form may be a part): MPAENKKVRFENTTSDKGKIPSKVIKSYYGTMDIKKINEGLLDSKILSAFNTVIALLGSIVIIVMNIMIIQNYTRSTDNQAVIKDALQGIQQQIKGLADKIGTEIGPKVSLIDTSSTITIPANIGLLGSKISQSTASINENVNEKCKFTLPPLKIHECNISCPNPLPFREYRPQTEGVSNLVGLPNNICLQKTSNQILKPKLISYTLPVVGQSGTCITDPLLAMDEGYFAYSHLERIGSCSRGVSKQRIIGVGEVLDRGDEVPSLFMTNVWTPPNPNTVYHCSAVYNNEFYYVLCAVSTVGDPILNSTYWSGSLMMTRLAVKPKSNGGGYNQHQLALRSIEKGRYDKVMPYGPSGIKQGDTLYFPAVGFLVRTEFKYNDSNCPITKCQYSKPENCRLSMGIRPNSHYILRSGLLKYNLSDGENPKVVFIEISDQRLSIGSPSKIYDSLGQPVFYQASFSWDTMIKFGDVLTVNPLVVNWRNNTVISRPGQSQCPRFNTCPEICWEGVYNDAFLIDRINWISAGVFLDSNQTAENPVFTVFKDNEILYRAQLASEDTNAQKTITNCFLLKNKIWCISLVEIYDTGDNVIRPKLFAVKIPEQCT
binder,measurement,value
"41-6 Fab fragment (Fab, V domains shown) VH: EVQLVQSGGGLVQPGGSLRLSCAASGFTVSSNYMSWVRQAPGKGLEWVSAISGSGGSTYYADSVKGRFTISRDNSKNTLYLQMNSLRAEDTAVYYCARDREDIVVVPAPRGYYYYYYMDVWGQGTTVTVSS VL: QSVVTQPPSVSAAPGQKVTISCSGSSSNIGTNHLSWYQQVPGTAPKLLIYDNNKRPSGIPDRFSGSKSGTSASLAISGLQSEDEADYYCATWDDSLHAWVFGGGTKLTVL",stoichiometry N,3
